Columns and labels:
Experiment in all cases: scFv ELISA
BSA = BSA (UniProt P02769)
[1] = target: Peptide 1: Biotin-…-[Tyr(PC)]-acid
[2] = target: Peptide 5: Biotin-…-[Tyr(PC)]-acid
[3] = target: T1, Peptide 4: Biotin-AGGGGSGGGGSGGGGSAAA-Tyr-acid (N-terminal biotin; C-terminal acid; no PC)
T1 construct: control peptide without PC
T1 peptide: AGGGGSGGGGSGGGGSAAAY
Summary of the method: (§1)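 Bound scFv was read as OD450 after HRP–anti-V5 detection, TMB development and HCl stop. PPE with BSA was incubated 1 h at RT on BSA-blocked wells coated overnight at 4° C. with peptide, or on streptavidin wells loaded 1 h with biotinylated PC-peptides at 1 μg/mL.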

[4] = target: T2, Peptide 8: Biotin-AEAAAKEAAAKEAAAKEAAAKAAA-Tyr-acid (N-terminal biotin; C-terminal acid; no PC)
T2 construct: control peptide without PC
T2 peptide: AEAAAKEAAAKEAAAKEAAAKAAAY
Summary of the method: as §1

Chain of BSA (P02769 25-607 limits assumed): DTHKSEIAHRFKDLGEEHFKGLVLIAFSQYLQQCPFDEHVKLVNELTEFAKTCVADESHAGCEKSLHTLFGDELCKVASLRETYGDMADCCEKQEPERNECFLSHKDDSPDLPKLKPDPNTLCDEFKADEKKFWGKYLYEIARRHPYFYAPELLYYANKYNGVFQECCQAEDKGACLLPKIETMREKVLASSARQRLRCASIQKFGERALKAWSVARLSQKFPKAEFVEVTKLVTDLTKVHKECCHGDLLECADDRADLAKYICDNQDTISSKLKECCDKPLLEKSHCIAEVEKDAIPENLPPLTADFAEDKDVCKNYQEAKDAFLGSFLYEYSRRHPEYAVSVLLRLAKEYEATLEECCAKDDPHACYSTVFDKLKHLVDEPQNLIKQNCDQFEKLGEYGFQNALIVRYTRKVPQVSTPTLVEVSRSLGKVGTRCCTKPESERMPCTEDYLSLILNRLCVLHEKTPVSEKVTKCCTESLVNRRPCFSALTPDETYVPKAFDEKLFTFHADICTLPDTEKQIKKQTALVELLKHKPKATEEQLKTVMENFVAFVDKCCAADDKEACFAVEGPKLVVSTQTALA

| Binder | OD450 (BSA) [OD450] | OD450 [1] [OD450] | OD450 [2] [OD450] | OD450 [3] [OD450] | OD450 [4] [OD450] |
| --- | --- | --- | --- | --- | --- |
| PcOxP_DB01_B02 (scFv, V domains shown, scFv in periplasmic extract) VH: EVQLLESGGGLVQPGGSLRLSCAASGGTFSDFYMEWVRQAPGKGLEWVAASRNKANSYTTAYADSVKGRFTISRDNSKNTLYLQMNSLRAEDTAVYYCARDYYGSSYWYFDVWGQGTLVTVSS VL: DIVMTQSPDSLAVSLGERATINCTASESLYSSKHKVHYLAWYQQKPGQPPKLLIYGASNRYIGVPDRFSGSGSGTDFTLTISSLQAEDVAVYYCAQFYSYPLTFGGGTKVEIK | 0.09 | 0.68 | 1.41 | 0.06 | 0.05 |
| PcOxP_DB01_D10 (scFv, V domains shown, scFv in periplasmic extract) VH: EVQLLESGGGLVQPGGSLRLSCAASGFTDSDFYMEWVRQAPGKGLEWVAASRNKANDYTTEYADSVKGRFTISRDNSKNTLYLQMNSLRAEDTAVYYCARDYYGSSYWYFDVWGQGTLVTVSS VL: DIVMTQSPDSLAVSLGERATINCTASESLYSSKHKVHYLAWYQQKPGQPPKLLIYGASNRYIGVPDRFSGSGSGTDFTLTISSLQAEDVAVYYCAQFYSYPLTFGGGTKVEIK | 0.06 | 0.15 | 0.44 | 0.05 | 0.04 |
| PcOxP_DB01_B10 (scFv, V domains shown, scFv in periplasmic extract) VH: EVQLLESGGGLVQPGGSLRLSCAASGFTFSDFYMEWVRQAPGKGLEWVAASRNKANDYTTTYADSVKGRFTISRDNSKNTLYLQMNSLRAEDTAVYYCARDYYGSSHWYFDVWGQGTLVTVSS VL: DIVMTQSPDSLAVSLGERATINCTASESLYSSKGKVHYLAWYQQKPGQPPKLLIYGASNRYIGVPDRFSGSGSGTDFTLTISSLQAEDVAVYYCVQFYSYPLTFGGGTKVEIK | 0.08 | 0.52 | 1.11 | 0.05 | 0.04 |
| PcOxP_DB01_D07 (scFv, V domains shown, scFv in periplasmic extract) VH: EVQLLESGGGLVQPGGSLRLSCAASGFTFSDYYMEWVRQAPGKGLEWVAASRNKANDYTTEYADSVKGRFTISRDNSKNTLYLQMNSLRAEDTAVYYCARDYYGDSYWYFDVWGQGTLVTVSS VL: DIVMTQSPDSLAVSLGERATINCKASQSVLSSKNNVNYLAWYQQKPGQPPKLLIYGASNRYSGVPDRFSGSGSGTDFTLTISSLQAEDVAVYYCAQFYSYPLTFGGGTKVEIK | 0.05 | 0.14 | 0.6 | 0.04 | 0.04 |
| PcOxP_DB01_E01 (scFv, V domains shown, scFv in periplasmic extract) VH: EVQLLESGGGLVQPGGSLRLSCAASGFTSSDFYMEWVRQAPGKGLEWVAASRNKANDYTTEYADSVKGRFTISRDNSKNTLYLQMNSLRAEDTAVYYCARDYYGSSYWYFDVWGQGTLVTVSS VL: DIVMTQSPDSLAVSLGERATINCTASESLYSSKHKVHYLAWYQQKPGQPPKLLIYGASNRVIGVPDRFSGSGSGTDFTLTISSLQAEDVAVYYCANFYSYPLTFGGGTKVEIK | 0.05 | 0.75 | 1.48 | 0.05 | 0.04 |
| PcOxP_DB01_D06 (scFv, V domains shown, scFv in periplasmic extract) VH: EVQLLESGGGLVQPGGSLRLSCAASGFTFSDFYMEWVRQAPGKGLEWVAASRNKANDYTTEYADSVKGRFTISRDNSKNTLYLQMNSLRAEDTAVYYCARDYYGSSYWYFDSWGQGTLVTVSS VL: DIVMTQSPDSLAVSLGERATINCTASESLYSSKHKVHYLAWYQQKPGQPPKLLIYGASNRYIGVPDRFSGSGSGTDFTLTISSLQAEDVAVYYCAQFYIYPLTFGGGTKVEIK | 0.06 | 0.41 | 0.69 | 0.04 | 0.04 |
| PcOxP_DB01_D11 (scFv, V domains shown, scFv in periplasmic extract) VH: EVQLLESGGGLVQPGGSLRLSCAASGFTFSSYYMEWVRQAPGKGLEWVAASRNKANDYTTEYADSVKGRFTISRDNSKNTLYLQMNSLRAEDTAVYYCARDYYGSSYWYNDVWGQGTLVTVSS VL: DIVMTQSPDSLAVSLGERATINCTASESLYSSKWKVHYLAWYQQKPGQPPKLLIYGASNRYIGVPDRFSGSGSGTDFTLTISSLQAEDVAVYYCAQFYSYPLTFGGGTKVEIK | 0.08 | 1.37 | 2.09 | 0.06 | 0.05 |
| PcOxP_DB01_B03 (scFv, V domains shown, scFv in periplasmic extract) VH: EVQLLESGGGLVQPGGSLRLSCAASGFTFSSYYMEWVRQAPGKGLEWVAASRNKANDYTTEYADSVKGRFTISRDNSKNTLYLQMNSLRAEDTAVYYCARDYYGSSYWYFDVWGQGTLVTVSS VL: DIVMTQSPDSLAVSLGERATINCTASESLYSSKHKVHYLAWYQQKPGQPPKLLIYGASNRYIGVPDRFSGSGSGTDFTLTISSLQAEDVAVYYCAQFYSYPLTFGGGTKVEIK | 0.08 | 0.82 | 1.25 | 0.05 | 0.05 |
| PcOxP_DB01_D12 (scFv, V domains shown, scFv in periplasmic extract) VH: EVQLLESGGGLVQPGGSLRLSCAASGFTFSDYYMEWVRQAPGKGLEWVAASRNKYNDYTTEYADSVKGRFTISRDNSKNTLYLQMNSLRAEDTAVYYCARDYYGSSYWYFDVWGQGTLVTVSS VL: DIVMTQSPDSLAVSLGERATINCTASESLYSSKHKVHYLAWYQQKPGQPPKLLIYGASNRYIGVPDRFSGSGSGTDFTLTISSLQAEDVAVYYCAQFYSYPLTFGGGTKVEIK | 0.06 | 0.85 | 1.48 | 0.05 | 0.05 |
| PcOxP_DB01_D01 (scFv, V domains shown, scFv in periplasmic extract) VH: EVQLLESGGGLVQPGGSLRLSCAASGFTFSSYYMEWVRQAPGKGLEWVAASRNKANDYTTEYADSVKGRFTISRDNSKNTLYLQMNSLRAEDTAVYYCARDYYGSSYWYFDVWGQGTLVTVSS VL: DIVMTQSPDSLAVSLGERATINCTASESLYSPKHKVHYLAWYQQKPGQPPKLLIYGASNRYIGVPDRFSGSGSGTDFTLTISSLQAEDVAVYYCAQFYIYPLTFGGGTKVEIK | 0.06 | 0.85 | 1.12 | 0.05 | 0.04 |
| PcOxP_DB01_B12 (scFv, V domains shown, scFv in periplasmic extract) VH: EVQLLESGGGLVQPGGSLRLSCAASGFTFSSYYMEWVRQAPGKGLEWVAASRNKGNSYTTEYADSVKGRFTISRDNSKNTLYLQMNSLRAEDTAVYYCARDYYGSSYWYFDVWGQGTLVTVSS VL: DIVMTQSPDSLAVSLGERATINCTASESLYSSKHKVHYLAWYQQKPGQPPKLLIYGASNRYIGVPDRFSGSGSGTDFTLTISSLQAEDVAVYYCGQFYSYPLTFGGGTKVEIK | 0.09 | 0.56 | 1.19 | 0.06 | 0.05 |
| PcOxP_DB01_B06 (scFv, V domains shown, scFv in periplasmic extract) VH: EVQLLESGGGLVQPGGSLRLSCAASGFTFSSYYMEWVRQAPGKGLEWVAASRNKYNDYTTEYADSVKGRFTISRDNSKNTLYLQMNSLRAEDTAVYYCARDYYGSSTWYFDVWGQGTLVTVSS VL: DIVMTQSPDSLAVSLGERATINCTASESLYSSKHKVHYLAWYQQKPGQPPKLLIYGASNRYIGVPDRFSGSGSGTDFTLTISSLQAEDVAVYYCAQFYSYPLTFGGGTKVEIK | 0.08 | 0.79 | 1.45 | 0.05 | 0.05 |
| PcOxP_DB01_C09 (scFv, V domains shown, scFv in periplasmic extract) VH: EVQLLESGGGLVQPGGSLRLSCAASGFTFSDFYMEWVRQAPGKGLEWVAASRNKANDYTTEYADSVKGRFTISRDNSKNTLYLQMNSLRAEDTAVYYCARDYYGSSYWYFDVWGQGTLVTVSS VL: DIVMTQSPDSLAVSLGERATINCTASQSVYSSKNKVHYLAWYQQKPGQPPKLLIYGASNRYIGVPDRFSGSGSGTDFTLTISSLQAEDVAVYYCAQFYSYPLTFGGGTKVEIK | 0.07 | 0.27 | 0.94 | 0.05 | 0.05 |
| PcOxP_DB01_C07 (scFv, V domains shown, scFv in periplasmic extract) VH: EVQLLESGGGLVQPGGSLRLSCAASGFTFSDYYMEWVRQAPGKGLEWVAASRNKANDYTTEYADSVKGRFTISRDNSKNTLYLQMNSLRAEDTAVYYCARDYYGSSYWYFDVWGQGTLVTVSS VL: DIVMTQSPDSLAVSLGERATINCTASESLYSSKHKVHYLAWYQQKPGQPPKLLIYGASNRYDGVPDRFSGSGSGTDFTLTISSLQAEDVAVYYCAQFYSYPLTFGGGTKVEIK | 0.05 | 0.53 | 1.1 | 0.04 | 0.04 |
| PcOxP_DB01_D04 (scFv, V domains shown, scFv in periplasmic extract) VH: EVQLLESGGGLVQPGGSLRLSCAASGFTFSDFYMEWVRQAPGKGLEWVAASRNKANDYTTEYADSVKGRFTISRDNSKNTLYLQMNSLRAEDTAVYYCARDYYGSSYWYFDVWGQGTLVTVSS VL: DIVMTQSPDSLAVSLGERATINCTASESLWSSKHKVHYLAWYQQKPGQPPKLLIYGASNRYIGVPDRFSGSGSGTDFTLTISSLQAEDVAVYYCAQFYSYPLTFGGGTKVEIK | 0.07 | 0.45 | 0.87 | 0.08 | 0.06 |
| PcOxP_DB01_C10 (scFv, V domains shown, scFv in periplasmic extract) VH: EVQLLESGGGLVQPGGSLRLSCAASGFTFSDFYMEWVRQAPGKGLEWVAASRNKANDYTTEYADSVKGRFTISRDNSKNTLYLQMNSLRAEDTAVYYCARDYYGSSYWYFDVWGQGTLVTVSS VL: DIVMTQSPDSLAVSLGERATINCTSSQSLLSSSHNKNYLAWYQQKPGQPPKLLIYGASNRYIGVPDRFSGSGSGTDFTLTISSLQAEDVAVYYCAQFYSYPLTFGGGTKVEIK | 0.07 | 0.13 | 0.53 | 0.04 | 0.04 |
